The numbers were not newly measured in PMC3910004, which cites them from elsewhere.

The data set addresses T1, human interleukin-6 receptor (hIL-6R) (Homo sapiens) (UniProt P08887).
T1 sequence: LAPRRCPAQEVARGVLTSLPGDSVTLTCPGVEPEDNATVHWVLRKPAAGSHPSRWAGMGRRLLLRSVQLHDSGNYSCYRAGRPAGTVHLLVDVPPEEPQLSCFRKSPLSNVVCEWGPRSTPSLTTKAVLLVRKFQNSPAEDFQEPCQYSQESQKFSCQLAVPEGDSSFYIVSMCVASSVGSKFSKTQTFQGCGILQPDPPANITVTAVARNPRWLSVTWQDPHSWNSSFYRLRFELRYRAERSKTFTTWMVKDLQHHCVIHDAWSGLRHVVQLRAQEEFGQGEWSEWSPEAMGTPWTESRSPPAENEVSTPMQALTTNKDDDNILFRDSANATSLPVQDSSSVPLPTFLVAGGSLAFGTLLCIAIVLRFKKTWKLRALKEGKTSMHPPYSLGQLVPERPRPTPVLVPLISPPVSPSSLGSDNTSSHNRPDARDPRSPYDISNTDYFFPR
The settings on record: Cell binding by flow cytometry, 50 nM conjugate, 45 min, serum-free medium, 37 °C (stated for the uptake in cytotoxicity assays); binding buffer details not in …. Background: Flow cytometry measures light scatter and fluorescence of single cells or particles in a stream.

Usually Kd stands for the equilibrium constant for the complex coming apart. Turning to GGGGAGGCUGUGGUGAGGG [AIR-3A], the dissociation constant Kd was 8.5 nM.
